Biological target: pooled human IgG (human IgG1, 2, 3 and 4)

B1: PRT-547 (protein)
chain: MANQEIRYSEETPKTITSVWTKGVTPPTDFIQNEDVLHAPYIANQGWYDITKTFNGKDDLLCGAATAGNMLHWWFDQNKEEIENYLKKHPEKQKINFNGEQMFDVKEAIDTKDSQTDSALFEYFKDKAFPYLSTKHLGVFPDHVIDMFINGYRLSLTNHGPTPVKRGTKDPRGGIFDAVFTRGDQSKLLTARHDFKEKTLNEISDLIKQELTEGKALGLSHTYANVRINHVINLWGADFNSEGNLEAIYVTDSDSNASIGMKKYYVGVNAAGKVAISAKEIEGDNIGAQVLGLFTLSTGQDIWEQTNLEHHHHHH
Enzyme Activity Endpoint Assay: Fab′2: 527 ng/µL | Enzyme Activity Endpoint Assay: Fc: 359 ng/µL | Enzyme Activity Endpoint Assay: IgG: 0 ng/µL | Enzyme Activity Endpoint Assay: scIgG: 256 ng/µL

B2: PRT-584 (protein)
chain: MANQEIRYSEETPKTITSVWTKGVTPPTNFIYNEDVLHAPYIANQGWYDITKTFNGKDDLLCGAATAGNMLHWWFDQNKEQIERYLKKHPEKQKINFNGEQMFDVKEAIDTKDSQTNSKLFEYFKDKAFPYLSTKHLGVFPDHVIDMFINGYRLSLTNHGPTPVKRQTKDPRGGIFDAVFTRGDQSKLLTSRHDFKEKTLNEISDLIKQELTEGKALGLSHTYANVRINHVINLWGADFNAEGNLEAIYVTDSDSNASIGMKKYYVGVNSAGKVAISAKEIEGDNIGAQVLGLFTLSTGQDIWEQTNLEHHHHHH
Enzyme Activity Endpoint Assay: Fab′2: 552 ng/µL | Enzyme Activity Endpoint Assay: Fc: 369 ng/µL | Enzyme Activity Endpoint Assay: IgG: 51 ng/µL | Enzyme Activity Endpoint Assay: scIgG: 285 ng/µL

B3: PRT-600 (protein)
chain: MANQEIRYSEETPSTITSVWTKGVTPPTDFIQNEDVLHAPYIANQGWYDITKTFNGKDDLLCGAATAGNMLHWWFDQNKEQIENYLKKHPEKQKINFNGEQMFDVKEAIDTKDSQTDSALFEYFKDKAFPYLSTKHLGVFPDHVIDMFINGYRLSLTNHGPTPVKRGTKDPRGGIFDAVFTRGDQSKLLTSRHDFKEKTLNEISDLIKQELTEGKALGLSHTYANVRINHVINLWGADFNAEGNLEAIYVTDSDSNASIGMKKYYVGVNSAGKVAISAKEIEGDNIGAQVLGLFTLSTGQDSWNQTNLEHHHHHH
Enzyme Activity Endpoint Assay: Fab′2: 992 ng/µL | Enzyme Activity Endpoint Assay: Fc: 441 ng/µL | Enzyme Activity Endpoint Assay: IgG: 0 ng/µL | Enzyme Activity Endpoint Assay: scIgG: 0 ng/µL

B4: PRT-590 (protein)
chain: MANQEIRYSEETPSTVTSVWTKGVTPPTDFIQNEDVLHAPYIANQGWYDITKTFNGKDDLLCGAATAGNMLHWWFDQNKEQIENYLKKHPEKQKINFNGEQMFDVKEAIDTKDSQTDSALFEYFKDKAFPYLSTKHLGVFPDHVIDMFINGYRLSLTNHGPTPVKRGTKDPRGGIFDAVFTRGDQSKLLTSRHDFKEKTLNEISDLIKQELTEGKALGLSHTYANVRINHVINLWGADFNAEGNLEAIYVTDSDSNASIGMKKYYVGVNSAGKVAISAKEIEGDNIGAQVLGLFTLSTGQDIWNQTNLEHHHHHH
Enzyme Activity Endpoint Assay: Fab′2: 954 ng/µL | Enzyme Activity Endpoint Assay: Fc: 217 ng/µL | Enzyme Activity Endpoint Assay: IgG: 0 ng/µL | Enzyme Activity Endpoint Assay: scIgG: 0 ng/µL

B5: PRT-578 (protein)
chain: MANQEIRYSKATPKVITSVWTKGVTPPEDFTYNEDVFHAPYLPNQGWYDITKTFNGKDDLLCGAATAGNMLHWWFDQNKEQIERYLKEHPEKQKINFNGEQMFDVKEAIDTKDSQTNSKLFEYFKDKAFPYLSTKHLGVFPDHVIDMFINGYRLSLTNHGPTPVKEQNKDPRGGIFDAVFTRGDQSKLLTSRHDFKEKTLKEISDLIKQELKEGKALGLSHTYANVRINHVINLWGADFDAEGNLEAIYVTDSDSNASIGMKKYYVGVNSAGKVAISAKEIEGDNIGAQVLGLFTLSTGKDIWEQTNLEHHHHHH
Enzyme Activity Endpoint Assay: Fab′2: 698 ng/µL | Enzyme Activity Endpoint Assay: Fc: 394 ng/µL | Enzyme Activity Endpoint Assay: IgG: 0 ng/µL | Enzyme Activity Endpoint Assay: scIgG: 0 ng/µL

B6: PRT-527 (protein)
chain: MANQEIRYSEETPKTITSVWTKGVTPPTDFIKNEDVLHAPYIANQGWYDITKTFNGKDDLLCGAATAGNMLHWWFDQNKEEIENYLKKHPEKQKINFNGEQMFDVKEAIDTKDSQTDSALFEYFKDKAFPNLSTKHLGVMPDLVLDMFINGYYLSLGKHGPTPVKRGTKDPRGGIFDAVFTRGDQSKLLTSRHDFKEKTLNEISDLIKQELTEGKALALSHTYANVRINHVINLWGADFNSEGNLEAIYVTDSDSNASIGMKKYYVGVNSAGKVAISAKEIEGDNIGAQVLGLFTLSTGQDIWEQTNLEHHHHHH
Enzyme Activity Endpoint Assay: Fab′2: 0 ng/µL | Enzyme Activity Endpoint Assay: Fc: 142 ng/µL | Enzyme Activity Endpoint Assay: IgG: 707 ng/µL | Enzyme Activity Endpoint Assay: scIgG: 396 ng/µL

B7: PRT-404 (protein)
chain: MVTSVWTKGVTPPADFTQGEDVFHAPYVANQGWYDITKTFNGKDDLLCGAATAGNMLHWWFDQNKEYIEAYLKKHPEKQKIMFGDQELLDVRKAINTKGSQKNSELFNYFRDKAFPNLSARRLGVMPDLVLDMFINGYYLNVTKTQTTDVNRTYQEKDKRGGIFDAVFTRGDQSKLLTSRHDFKEKGLKEISDLIKQELTEGKALGLSHTYANVRIGHVINLWGADFDSDGNLKAIYVTDSDSNASIGMKKYFVGVNSAGKVAISAKEIKEDNIGAQVLGLFTLSTGQDIWNQTN
Enzyme Activity Endpoint Assay (purified): Fab′2: 0 ng/µL | Enzyme Activity Endpoint Assay (purified): Fc: 0 ng/µL | Enzyme Activity Endpoint Assay (purified): IgG: 1580 ng/µL | Enzyme Activity Endpoint Assay (purified): scIgG: 0 ng/µL

B8: PRT-412 (protein)
chain: MVTSVWTKGVTPPADFTQGEDVFHAPYVANQGWYDITKTFNGKDDLLCGAATAGNMLHWWFDQNKEYIEAYLKKHPEKQKIMFGDQELLDVRKAINTKGSQKNSELFNYFRDKAFPNLSARRLGVMPDLVLDMFINGYYLNVTKTQTTDVNRTYQEKDKRGGIFDAVFTRGDQSKLLTSRHDFKEKGLKEISDLIKQELTEGKALGLSHTYANVRINHVINLWGADFDSDGNLKAIYVTDSDSNASIGMKKYFVGVNAAGKVAISAKEIKEDNIGAQVLGLFTLSTGQDIWNQTN
Enzyme Activity Endpoint Assay (purified): Fab′2: 518 ng/µL | Enzyme Activity Endpoint Assay (purified): Fc: 103 ng/µL | Enzyme Activity Endpoint Assay (purified): IgG: 0 ng/µL | Enzyme Activity Endpoint Assay (purified): scIgG: 170 ng/µL

B9: PRT-264 (protein)
chain: MVTSVWTKGVTPPTNFTYGEDVLHAPYVANQGWYDITKLFNGKDNLLCGAATAGNMLHWWFDQNKEQIENYLKKHPEKQKINFNGEQLFDVKEAIDTKDSQLDSKLFDYFKEKAFPYLSTKHLGVFPDHVIDMFINGYRLSLTNHGPTPVKRGSKDKRGGIFDAVFTRGVQSKLLTNRHDFKEKTLKEISDLIKQELTEGKALGISHTYANVRINHVINLWGADFDAEGNLEAIYVTDSDTNPSIGMKKYFVGVNSSGKVAISAKEIEEDNIGAQVLGLFTLSTGQDIWNQTN
Enzyme Activity Endpoint Assay: Fab′2: 606 ng/µL | Enzyme Activity Endpoint Assay: Fc: 353 ng/µL | Enzyme Activity Endpoint Assay: IgG: 97 ng/µL | Enzyme Activity Endpoint Assay: scIgG: 0 ng/µL

B10: PRT-543 (protein)
chain: MANQEIRYSKNENPNVTIKWVHGIGEPTQSEKEKIEFWWYETTTTKFFNNRKVDPLGDGNQCWAKTDSNMLHWWFVQNEENINQYIEKKNITGKINFNGEQMFDVKEGIDDNQEPEKSYIANTFRTKKAHNLSTKHKGDYIINGLSWYLYGLNNFKNAHGPTPVKKKPKFYGPALFKDVFNRGDGNTPIIVETDFKEYTKKEFEDTLSAALDSKKAIGINIYGSNVDYQHAITLWGAAFDEEENIIAIYVVDNNFKFENRIFPYGIWYEKEGRPYLFNYEINSFVKNRYVGEITTLDKGEAQWQETNLEHHHHHH
Enzyme Activity Endpoint Assay: Fab′2: 0 ng/µL | Enzyme Activity Endpoint Assay: Fc: 0 ng/µL | Enzyme Activity Endpoint Assay: IgG: 1470 ng/µL | Enzyme Activity Endpoint Assay: scIgG: 0 ng/µL

B11: PRT-420 (protein)
chain: MTITSVWTKGVTPPTPEDFRYNNEDVLHAPYVANQGWYDITKTFDGKDNLLCGAATAGNMLHWWFDQNKEEIERYLKKHPEKQKIIFNNQEWFDVKAAIDTKDSQTNSKLFNYFRDKAFPNLSARQLGVMPDLVLDMFINGYYLNLGKTQSTDVNRPYQDKDKRGGIFDAVFTRGDQTTLLTARHDLKNKGLNEISDLIKQELTEGKALALSHTYANVRINHVINLWGADFDAEGNLIAIYVTDSDANASIGMKKYFVGVNANGKVAISAKKIEGDNIGAQVLGLFTLSTGQDIWQKLS
Enzyme Activity Endpoint Assay (purified): Fab′2: 515 ng/µL | Enzyme Activity Endpoint Assay (purified): Fc: 300 ng/µL | Enzyme Activity Endpoint Assay (purified): IgG: 125 ng/µL | Enzyme Activity Endpoint Assay (purified): scIgG: 0 ng/µL

B12: PRT-428 (protein)
chain: MTITSVWTKGVTPPTPEDFRYNNEDVLHAPYVANQGWYDITKTFDGKDNLLCGAATAGNMLHWWFDQNKEEIERYLKKHPEKQKIIFNNQELFDVKAAIDTKDSQTNSKLFNYFRDKAFPNLSARQLGVMPDLVLDMFINGYYLNLGKTQSTDVNRPYQDKDKRGGIFDAVFTRGDQTTLLTARHDLKNKGLNEISDLIKQELTEGKALALSHTYANVRINHVINLWGADFDAEGNLIAIYVTDSDTNASIGMKKYFVGVNANGKVAISAKKIEGDNIGAQVLGLFTLSTGQDIWQKLS
Enzyme Activity Endpoint Assay (purified): Fab′2: 505 ng/µL | Enzyme Activity Endpoint Assay (purified): Fc: 336 ng/µL | Enzyme Activity Endpoint Assay (purified): IgG: 90 ng/µL | Enzyme Activity Endpoint Assay (purified): scIgG: 119 ng/µL

B13: PRT-256 (protein)
chain: MVTSVWTKGVTPPTNFTYGEDVLHAPYVANQGWYDITKLFNGKDDLLCGAATAGNMLHWWFDQNKEQIENYLKKHPEKQKINFNGEQMFDVKEAIDTKDSQLDSKLFEYFLEKAFPNLSTKHLGVFPDHVIDMFINGYRLSLLNHGPTPVKRGSKDPRGGIFDAVFTRGDQSKLLTNRHDFKEKTLKEISDLIKQELTEGKALGISHTYANVGINHVINLWGADFDAEGNLEAIAVTDSDSNASIGMKKYFVGVNSSGKVAISAKEIEEDNIGAQVLGLFTLSTGQDIWNQTN
Enzyme Activity Endpoint Assay: Fab′2: 610 ng/µL | Enzyme Activity Endpoint Assay: Fc: 376 ng/µL | Enzyme Activity Endpoint Assay: IgG: 55 ng/µL | Enzyme Activity Endpoint Assay: scIgG: 0 ng/µL

B14: PRT-272 (protein)
chain: MVTSVWTKGVTPPTDFIYGEDVLHAPYKAGQGWYDITKLFNGKDDLLCGAATAGNMLHWWFDQNKEQIENYLKKHPEKQKINFNGEQMFDVKEAIDTKDSQLDSKLFEYFLEKAFPYLSTKHLGVFPDHVIDMFINGYRLSLTNHGPTPVKRGSKDPRGGIFDAVFTRGDQSKLLTNRHDLKNKTLKEISDLIKQELTEGKALGISHTYANVRINHVINLWGADFDAEGNLEAIAVTDSDSNASIGMKKYFVGVNSSGKVAISAKEIEEDNIGAQVLGLFTLSTGQDIWNQTN
Enzyme Activity Endpoint Assay: Fab′2: 721 ng/µL | Enzyme Activity Endpoint Assay: Fc: 389 ng/µL | Enzyme Activity Endpoint Assay: IgG: 0 ng/µL | Enzyme Activity Endpoint Assay: scIgG: 0 ng/µL
